This note sets out measurements from patent US20230265198A1 (TWIST BIOSCIENCE, published 2023).

Test [1] concerns the target neuropilin-1 (NRP1) on HEK293 cells overexpressing NRP1 (UniProt O14786). In words: flow cytometry, HEK293-NRP1 vs HEK293.
The target in test [2] is neuropilin-1 (NRP1), analyte in SPR (UniProt O14786 22-644, limits assumed). Kind of test: SPR, Carterra LSA, antibody coupled. On the procedure: SPR experiments were performed on a Carterra LSA SPR biosensor equipped with a HC30M chip at 25° C. in HBS-TE. Antibodies were diluted to 10 μg/mL and amine-coupled to the sensor chip by EDC/NHS activation, followed by ethanolamine HCl quenching. Increasing concentrations of analyte were flowed over the sensor chip in HBS-TE with 0.5 mg/mL BSA with 5-minute association and 15-minute dissociation. Following each injection cycle the surface was regenerated with 2× 30-second injections of IgG elution buffer (Thermo). Data were analyzed in Carterra's Kinetics Tool software with 1:1 binding model.
Background: Surface plasmon resonance follows binding to a sensor surface in real time, without labels.

B1: NRP1-62 (VHH)
VHH: EVQLVESGGGLVQPGGSLRLSCAASGSSLSNYTMGWFRQAPGKERELVATIWWTVGAPYYADSVKGRFTISADNSKNTAYLQMNSLKPEDTAVYYCAAYQRGWGDWGQGTLVTVSS
For the molecule B1, in test [1], the 100 nM FACS (MFI Ratio) came to 1.5.

B2: NRP1-27 (VHH)
VHH: EVQLVESGGGLVQPGGSLRLSCAASGFRFGDYPMGWFRQAPGKEREFVSAISWSGGSTVYADSVKGRFTISADNSKNTAYLQMNSLKPEDTAVYYCALGPVRRSRLEWGQGTLVTVSS
On to B2, for which the 100 nM FACS (MFI Ratio) in test [1] came out at 2.1. In addition, the binding result in test [2] was “no binding”.

B3: NRP1-53 (VHH)
VHH: EVQLVESGGGLVQPGGSLRLSCAASGRTFNRYPMGWFRQAPGKEREWVAAITPQGVPNYADSVKGRFTISADNSKNTAYLQMNSLKPEDTAVYYCAIHTSREIWGQGTLVTVSS
On to B3, for which the 100 nM FACS (MFI Ratio) in test [1] came out at 1.9.

B4: NRP1-58 (VHH)
VHH: EVQLVESGGGLVQPGGSLRLSCAASGRTFNRYPMGWFRQAPGKEREWVAGINSGGGTWYADSVKGRFTISADNSKNTAYLQMNSLKPEDTAVYYCAIHTSREIWGQGTLVTVSS
With B4, the 100 nM FACS (MFI Ratio) in test [1] stood at 1.9.

B5: NRP1-70 (VHH)
VHH: EVQLVESGGGLVQPGGSLRLSCAASGDTFSRYTMGWFRQAPGKEREFVATIWWTFDAPYYADSVKGRFTISADNSKNTAYLQMNSLKPEDTAVYYCAARSPMSPTWDWGQGTLVTVSS
With B5, the 100 nM FACS (MFI Ratio) in test [1] was 1.9.

B6: NRP1-44 (VHH)
VHH: EVQLVESGGGLVQPGGSLRLSCAASGRSFSTYIMGWFRQAPGKERELVARITSGGYTYADSVKGRFTISADNSKNTAYLQMNSLKPEDTAVYYCAADVSPSYGSRWYWGQGTLVTVSS
As for B6, in test [1], the 100 nM FACS (MFI Ratio) was 1.6.

B7: NRP1-43 (VHH)
VHH: EVQLVESGGGLVQPGGSLRLSCAASGYFASWYYMGWFRQAPGKEREWVATIYSPSGSAVYADSVKGRFTISADNSKNTAYLQMNSLKPEDTAVYYCARDSFYDGSGYSPWGQGTLVTVSS
As to B7, the 100 nM FACS (MFI Ratio) in test [1] stood at 1.5.

B8: NRP1-233 (antibody, IgG2, V domains shown)
VH: EVQLLESGGGLVQPGGSLRLSCAASGFSFSTYAMTWVRQAPEKGLEWVSSIGGSGRSTYYADSVKGRFTISRDNSKNTLYLQMNSLRAEDTAVYYCARLKRGGTNLVRKATRYQFYGMDAWGQGTLVTVSS
VL: DIQMTQSPSSLSASVGDRVTITCRASQSISSYLAWYQQKPGKAPKLLIYAGSGLQSGVPSRFSGSGSGTDFTLTISSLQPEDFATYYCQQSFTSPLTFGGGTKVEIK
Regarding B8, in test [1], the 100 nM FACS (MFI Ratio) came to 1.7.

B9: NRP1-253 (antibody, IgG2, V domains shown)
VH: EVQLLESGGGLVQPGGSLRLSCAASGFTFSNHAMSWVRQAPGKGLEWVSTISGSGGSTYYVDSVKGRFTISRDNSKNTLYLQMNSLRAEDTAVYYCARGGPAPLFDYWGQGTLVTVSS
VL: DIQMTQSPSSLSASVGDRVTITCRSSQSISSYLNWYQQKPGKAPKLLIYAASNFQSGVPSRFSGSGSGTDFTLTISSLQPEDFATYYCQQTYSIPLTFGGGTKVEIK
For B9, the 100 nM FACS (MFI Ratio) in test [1] stood at 1.5.

B10: NRP1-251 (antibody, IgG2, V domains shown)
VH: EVQLLESGGGLVQPGGSLRLSCAASGSTFSSHAMSWVRQAPGKGLEWVSGISASGGSTHYADSVKGRFTISRDNSKNTLYLQMNSLRAEDTAVYYCARLKRGGTNLVRKATRYQFYGMDAWGQGTLVTVSS
VL: DIQMTQSPSSLSASVGDRVTITCRASQSVSSHLNWYQQKPGKAPKLLIYDASSLQSGVPSRFSGSGSGTDFTLTISSLQPEDFATYYCQQSYKTPVTFGGGTKVEIK
Consider B10, for which the 100 nM FACS (MFI Ratio) in test [1] is 1.5.

B11: NRP1-245 (antibody, IgG2, V domains shown)
VH: EVQLLESGGGLVQPGGSLRLSCAASGLTFSRYAMSWVRQAPGKGLEWVSTISGRGGSTNYADSVKGRFTISRDNSKNTLYLQMNSLRAEDTAVYYCAKDSARFISPPRGIRIRGVVLSGFDSWGQGTLVTVSS
VL: DIQMTQSPSSLSASVGDRVTITCRASQSISTSLNWYQQKPGKAPKLLIYATSSLQSGVPSRFSGSGSGTDFTLTISSLQPEDFATYYCQQAYSTPLTFGGGTKVEIK
Consider B11, for which, in test [1], the 100 nM FACS (MFI Ratio) is 2.

B12: NRP1-277 (antibody, IgG2, V domains shown)
VH: EVQLLESGGGLVQPGGSLRLSCAASGFRFSTYAMSWVRQAPGKGLEWVSTVSGSGAYTYYADSVKGRFTISRDNSKNTLYLQMNSLRAEDTAVYYCADIAVAGTWGQGTLVTVSS
VL: DIQMTQSPSSLSASVGDRVTITCRASQRISDYLNWYQQKPGKAPKLLIYAASTLQSGVPSRFSGSGSGTDFTLTISSLQPEDFATYYCQQSFSTPITFGGGTKVEIK
On to B12, for which, in test [1], the 100 nM FACS (MFI Ratio) turned out to be 1.5.

B13: NRP1-263 (antibody, IgG2, V domains shown)
VH: EVQLLESGGGLVQPGGSLRLSCAASGFTFKKYAMSWVRQAPGKGLEWVSTISGSGRSTYYADSVKGRFTISRDNSKNTLYLQMNSLRAEDTAVYYCARDLARGTMPRGVIIPHNWFDPWGQGTLVTVSS
VL: DIQMTQSPSSLSASVGDRVTITCRASQTISNYLNWYQQKPGKAPKLLIYGATSLQSGVPSRFSGSGSGTDFTLTISSLQPEDFATYYCQQSYNTPTTFGGGTKVEIK
B13: in test [1], the 100 nM FACS (MFI Ratio) amounted to 1.9.

B14: NRP1-296 (antibody, IgG2, V domains shown)
VH: EVQLLESGGGLVQPGGSLRLSCAASGFTFSGHAMSWVRQAPGKGLEWVSGISGSGGKIYYADSVKGRFTISRDNSKNTLYLQMNSLRAEDTAVYYCTRDVRSKDYVRGSSRYHGGMDVWGQGTLVTVSS
VL: DIQMTQSPSSLSASVGDRVTITCRASHSISRYLNWYQQKPGKAPKLLIYSASSLRSGVPSRFSGSGSGTDFTLTISSLQPEDFATYYCQQRYITPWTFGGGTKVEIK
B14: the 100 nM FACS (MFI Ratio) in test [1] turned out to be 1.5.

B15: NRP1-297 (antibody, IgG2, V domains shown)
VH: EVQLLESGGGLVQPGGSLRLSCAASGFTFGRYAMSWVRQAPGKGLEWVSSISGSGGSTYYTDSVKGRFTISRDNSKNTLYLQMNSLRAEDTAVYYCVRALAGRRDHWGQGTLVTVSS
VL: DIQMTQSPSSLSASVGDRVTITCRTSQRISTSLNWYQQKPGKAPKLLIYGASNLQSGAPSRFSGSGSGTDFTLTISSLQPEDFATYYCQQSYFTPITFGGGTKVEIK
For the molecule B15, the 100 nM FACS (MFI Ratio) in test [1] was determined as 1.6.

B16: NRP1-269 (antibody, IgG2, V domains shown)
VH: EVQLLESGGGLVQPGGSLRLSCAASGFTFSNYVMTWVRQAPGKGLEWVSTISGSGGGTFYADSVKGRFTISRDNSKNTLYLQMNSLRAEDTAVYYCATDTVWASAWGSWGQGTLVTVSS
VL: DIQMTQSPSSLSASVGDRVTITCRASQTIRKYLNWYQQKPGKAPKLLIYAASSLQSGVPSRFSGSGSGTDFTLTISSMQPEDFATYYCQQSYSTPITFGGGTKVEIK
B16: in test [1], the 100 nM FACS (MFI Ratio) came out at 1.9.
